Test results as given in patent publication US9725708B2, “Methods of modulating ubiquitin ligase activity” (Board of Supervisors of Louisiana State University and …, priority 2012, dated 2017).
Changes are numbered by the printed parent chain. Read-outs that look alike come from different tables or passages of the source.

Experiments:
E6AP ligase [1] = target: T1, E6AP ligase (Homo sapiens, UniProt Q05086); assay: E6AP-catalyzed 125I-polyubiquitin chain formation, initial rates; format: biochemical
T1 construct: corresponding to full-length GST-E6AP; made in house; host or cells: E. coli
T1 sequence (Q05086 1-872 isoform Q05086-3): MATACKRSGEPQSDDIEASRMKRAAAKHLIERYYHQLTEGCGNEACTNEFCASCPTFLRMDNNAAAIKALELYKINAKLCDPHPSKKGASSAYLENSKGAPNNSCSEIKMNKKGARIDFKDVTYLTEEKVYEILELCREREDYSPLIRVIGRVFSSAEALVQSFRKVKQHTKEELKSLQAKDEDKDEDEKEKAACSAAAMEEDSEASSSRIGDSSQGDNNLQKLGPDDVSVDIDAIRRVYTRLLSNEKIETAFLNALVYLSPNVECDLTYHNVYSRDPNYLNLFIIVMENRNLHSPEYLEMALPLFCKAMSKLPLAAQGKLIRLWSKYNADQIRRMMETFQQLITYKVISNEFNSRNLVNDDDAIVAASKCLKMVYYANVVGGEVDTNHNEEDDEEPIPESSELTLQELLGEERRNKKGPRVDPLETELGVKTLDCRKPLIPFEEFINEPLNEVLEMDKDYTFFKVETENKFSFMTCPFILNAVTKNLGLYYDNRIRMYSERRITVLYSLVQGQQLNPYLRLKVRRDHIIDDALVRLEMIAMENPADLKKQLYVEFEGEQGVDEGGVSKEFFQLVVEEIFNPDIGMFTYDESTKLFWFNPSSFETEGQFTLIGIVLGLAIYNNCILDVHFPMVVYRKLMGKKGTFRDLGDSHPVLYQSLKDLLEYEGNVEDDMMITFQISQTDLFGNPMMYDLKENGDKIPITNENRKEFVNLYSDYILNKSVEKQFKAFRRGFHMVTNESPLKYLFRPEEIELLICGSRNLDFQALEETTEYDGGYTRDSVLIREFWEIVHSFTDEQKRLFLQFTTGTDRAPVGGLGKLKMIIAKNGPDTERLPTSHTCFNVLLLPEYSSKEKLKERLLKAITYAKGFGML
Experimental: (§1) E6AP-catalyzed ^125I-Ubiquitin Conjugation Assay: The E3 ligase activity of recombinant E6AP ligase was quantitated in kinetic assays under initial velocity conditions (Ronchi et al., (2013) J. Biol. Chem. 288, 10349-10360, Ronchi & Haas (2012) Methods Mol. Biol. 832: 197-218). Rates of E6AP-catalyzed ^125I-polyubiquitin chain formation were measured at 37° C. in incubations of 25-μl final volume containing 50 mM Tris-HCl (pH 7.5), 1 mM ATP, 10 mM MgCl2, 1 mM DTT, 10 mM creatine phosphate, 1 IU of creatine phosphokinase, 5 μM ^125I-ubiquitin (approximately 1.5×10^4 cpm/pmol), 50 nM human Uba1, and the indicated concentrations of UbcH7 and E6AP ligase (Siepmann et al., (2003) J. Biol. Chem. 278: 9448-9457; Baboshina et al., (2001) J. Biol. Chem. 276: 39428-39437).
Reactions were initiated by the addition of ^125I-ubiquitin. After 10-30 min, the reactions were quenched by the addition of 25 μl of 2×SDS sample buffer containing 0.3% (v/v) β-mercaptoethanol, and then the samples were heated to 100° C. for 3 min. The polyubiquitin conjugates were resolved from free ^125I-ubiquitin by 12% (w/v) SDS-PAGE under reducing conditions at 4° C. and visualized by autoradiography of the dried gels.
(§2) Polyubiquitin chain formation was measured by excising lanes between the top of the resolving gel and the top of the stacker gel, representing anchored and free ^125I-polyubiquitin chains, respectively, and quantitating associated ^125I-ubiquitin by γ-counting. Absolute rates of ^125I-polyubiquitin chain formation were calculated from the associated radioactivity and the corrected specific radioactivity for ^125I-ubiquitin. Datum points represent single assay determinations, and complete data sets were evaluated by non-linear regression analysis using GraFit version 5.0 (Erithicus). Active Uba1, E2, and E6AP ligase were independently determined in parallel by their stoichiometric formation of ^125I-ubiquitin thioester.

E6AP ligase [2] = target: E6AP ligase (Homo sapiens, UniProt Q05086); conditions: surface plasmon resonance, Zanier et al. 2005; cited from earlier work
E6APR626A = target: T2, E6APR626A (Homo sapiens, UniProt Q05086, R649A); assay: E6 rescue of 125I-polyubiquitin chain formation by E6APR626A; format: biochemical; conditions: 20 nM E6 protein
T2 construct: made in house; host or cells: E. coli
T2 sequence (Q05086 1-872 isoform Q05086-3 R646A): T1 sequence (Q05086 1-872 isoform Q05086-3) with R646A
Experimental: as §1, with “39428-39437). […]” for “39428-39437).”
as §2, with “Active Uba1, E2, and E6AP ligase were independently determined in parallel by their stoichiometric formation of ^125I-ubiquitin thioester.” left out

B1: E6 protein: recombinant human papilloma virus 16 E6 protein, 158 amino acids (protein)
chain: MHQKRTAMFQDPQERPRKLPQLCTELQTTIHDIILECVYCKQQLLRREVYDFAFRDLCIVYRDGNPYAVCDKCLKFYSKISEYRHYCYSLYGTTLEQQYNKPLCDLLIRCINCQKPLCPEEKQRHLDKKQRFHNIRGRWTGRCMSCCRSSRTRRETQL
With B1 the “effect on initial rate, wild-type protein” value (E6AP ligase [1]; 20 nM E6 protein, 1 nM GST-E6AP) was “significantly enhanced”, the Kactivation (E6AP ligase [1]; activation of E6AP ligase catalytic activity) was 1.5 nM and the Kd (E6AP ligase [1]; from double reciprocal plot, His6-E6AP, read-out: Kd for E6 binding) was 1.5 nM. The kcat (E6AP ligase [1]; in the presence of 20 nM E6 protein, 0.4 nM His6-E6AP) was 0.81 ± 0.045 s⁻¹, the “stimulation in E6AP ligase activity” value (E6AP ligase [1]; saturating E6 protein) was 14 fold and the mode of action (E6AP ligase [1]; with respect to [UbcH7]o) was “non-essential activator”. The Kd (E6AP ligase [2]) was 4000 nM and the increase in rate (E6APR626A) was 13 fold.
